The supplement of paper PMC5998384

Assays:
HeLa Kyoto [1] = experiment: solubility in G1/S (NP-40 vs SDS abundance) (log2 ratio); higher = more soluble; settings: cell cycle stage: G1/S
HeLa Kyoto [2] = experiment: melting temperature (median over replicates), in situ; higher = more thermally stable
HeLa Kyoto [3] = experiment: solubility change mitosis vs G1/S (difference of NP-40 vs SDS log2 ratios) (log2 ratio difference); higher = more soluble in mitosis
HeLa Kyoto [4] = experiment: thermal stability score vs G1/S (z-score of summed log2 fold changes over temperatures); higher = more thermally stable than in G1/S
[5] = cell cycle stage: early G1 (4.5 h after nocodazole release)
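Throughout, for melting temperature (median over replicates), in situ: HeLa Kyoto cells synchronized by double thymidine or nocodazole block, proteins quantified by TMT10plex mass spectrometry, three independent biological replicates.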
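Throughout, for solubility change mitosis vs G1/S (difference of NP-40 vs SDS log2 ratios): synchronized HeLa Kyoto cells (double thymidine block for G1/S, nocodazole release for mitosis), protein amounts in NP-40 versus SDS lysates quantified by mass spectrometry, three biological replicates.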
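Throughout, for solubility in G1/S (NP-40 vs SDS abundance): HeLa Kyoto cells arrested at G1/S by double thymidine block, proteins quantified by TMT10plex mass spectrometry in mild NP-40 versus SDS extracts, three biological replicates.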
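Throughout, for thermal stability score vs G1/S (z-score of summed log2 fold changes over temperatures): synchronized HeLa Kyoto cells, proteins quantified by TMT10plex mass spectrometry, three biological replicates, mitosis taken 0.5 h after nocodazole release, G1/S directly after double thymidine block.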

## MGDAKEAGAEGPPAGAAARGGLSLLSQGESEESSAQGSALFLGGNEVKSRAVVKYSSAPPRTAFARLEEKTDLKLPPANWLRESAKLGPAGTTILGNSKKSKPFSSFGMAYDFIDSVGNDVDVVSDSENIKKLLKIPYSKSHVSMAVHRIGRTLLLDELDIQELFMRSSQTGDWTWLKEFYQRLIDQKWQRKKKSKEHWYQKAILSKFLYYSINGDGAAQPVSSTAEQQESSSSDQTNDSEGASWPAPFEMPSSVSEDPSASSQGSEPLEPSYIVGHVASAPKEQNLITLFNDGEHSQGLKNDFVRNILWTFEDIHMLVGSNMPIFGGGRYPAVSLRLRDNNKPINVLTGIDYWLDNLICNVPELVMCFHVNGIVQKYEMIKTEEIPNLENSNFSTKVIKDIAQNILSFLKSNCTKEGHTYWLFKASGSDIVKLYDLTTLCEETEDKYQNPFTMPVAILLYKVACNMMMKKNQNKKHYGTIRTLLLNCLKLLDKSRHPQIIASANYMLSELFQLDEPKKEENSESPLNENSDESYSEEEEEMPDSDENGSYSTSSDPSDDSKAVAIIKSVGELSVPEKYKSIHQIRPSCAFPVCHDTEERCRLVLSYVLEGLKSVDSSIKKESDLPAADPSTPIPLKYEDESSRGGPEGLEKQMALFLDKMGSLQKGNYSSQSGMIPGSWQHKMKLQLILKSSKAYYVLSDAAMSLQKYGRALRYIKLALQSHDTYCCLCTNMLSEVLLFLSQYLTLCGDIQLMLAQNANNRAAHLEEFHYQTKEDQEILHSLHRESSCQGFAWATDLSTDLESQLSVSCKCYEAANEILQFSDLKSQNPEHYVQVLKRMGNIRNEIGVFYMNQAAALQSERLVSKSVSAAEQQLWKKSFSCFEKGIHNFESIEDATNAALLLCNTGRLMRICAQAHCGAGDELKREFSPEEGLYYNKAIDYYLKALRSLGTRDIHPAVWDSVNWELSTTYFTMATLQQDYAPLSRKAQEQIEKEVSEAMMKSLKYCDVDSVSARQPLCQYRAATIHHRLASMYHSCLRNQVGDEHLRKQHRVLADLHYSKAAKLFQLLKDAPCELLRVQLERVAFAEFQMTSQNSNVGKLKTLSGALDIMVRTEHAFQLIQKELIEEFGQPKSGDAAAAADASPSLNREEVMKLLSIFESRLSFLLLQSIKLLSSTKKKTSNNIEDDTILKTNKHIYSQLLRATANKTATLLERINVIVHLLGQLAAGSAASSNAVQ [EDRF1]
HeLa Kyoto [1]
  solubility in G1/S (log2): -0.026
HeLa Kyoto [2]; cell cycle stage: G1/S
  melting temperature: 51 °C
HeLa Kyoto [2]; cell cycle stage: mitosis
  melting temperature: 49.3 °C
HeLa Kyoto [3]
  solubility change mitosis (log2): -0.0878
HeLa Kyoto [4]; [5]
  thermal stability score: 0.416
HeLa Kyoto [4]; cell cycle stage: mitosis
  thermal stability score: -0.168

## MASASGAMAKHEQILVLDPPTDLKFKGPFTDVVTTNLKLRNPSDRKVCFKVKTTAPRRYCVRPNSGIIDPGSTVTVSVMLQPFDYDPNEKSKHKFMVQTIFAPPNTSDMEAVWKEAKPDELMDSKLRCVFEMPNENDKLNDMEPSKAVPLNASKQDGPMPKPHSVSLNDTETRKLMEECKRLQGEMMKLSEENRHLRDEGLRLRKVAHSDKPGSTSTASFRDNVTSPLPSLLVVIAAIFIGFFLGKFIL [VAPA]
HeLa Kyoto [1]
  solubility in G1/S (log2): 0.735
HeLa Kyoto [2]; cell cycle stage: G1/S
  melting temperature: 54.1 °C
HeLa Kyoto [2]; cell cycle stage: mitosis
  melting temperature: 54.5 °C
HeLa Kyoto [3]
  solubility change mitosis (log2): 0.0815
HeLa Kyoto [4]; [5]
  thermal stability score: -1.27
HeLa Kyoto [4]; cell cycle stage: mitosis
  thermal stability score: -1.24

## MTEQAISFAKDFLAGGIAAAISKTAVAPIERVKLLLQVQHASKQIAADKQYKGIVDCIVRIPKEQGVLSFWRGNLANVIRYFPTQALNFAFKDKYKQIFLGGVDKHTQFWRYFAGNLASGGAAGATSLCFVYPLDFARTRLAADVGKSGTEREFRGLGDCLVKITKSDGIRGLYQGFSVSVQGIIIYRAAYFGVYDTAKGMLPDPKNTHIVVSWMIAQTVTAVAGVVSYPFDTVRRRMMMQSGRKGADIMYTGTVDCWRKIFRDEGGKAFFKGAWSNVLRGMGGAFVLVLYDELKKVI [SLC25A6]
HeLa Kyoto [1]
  solubility in G1/S (log2): -0.157
HeLa Kyoto [2]; cell cycle stage: G1/S
  melting temperature: 57.1 °C
HeLa Kyoto [2]; cell cycle stage: mitosis
  melting temperature: 57.4 °C
HeLa Kyoto [3]
  solubility change mitosis (log2): 0.0142
HeLa Kyoto [4]; [5]
  thermal stability score: -0.865
HeLa Kyoto [4]; cell cycle stage: mitosis
  thermal stability score: -3.48

## MDDSEVESTASILASVKEQEAQFEKLTRALEEERRHVSAQLERVRVSPQDANPLMANGTLTRRHQNGRFVGDADLERQKFSDLKLNGPQDHSHLLYSTIPRMQEPGQIVETYTEEDPEGAMSVVSVETSDDGTTRRTETTVKKVVKTVTTRTVQPVAMGPDGLPVDASSVSNNYIQTLGRDFRKNGNGGPGPYVGQAGTATLPRNFHYPPDGYSRHYEDGYPGGSDNYGSLSRVTRIEERYRPSMEGYRAPSRQDVYGPQPQVRVGGSSVDLHRFHPEPYGLEDDQRSMGYDDLDYGMMSDYGTARRTGTPSDPRRRLRSYEDMIGEEVPSDQYYWAPLAQHERGSLASLDSLRKGGPPPPNWRQPELPEVIAMLGFRLDAVKSNAAAYLQHLCYRNDKVKTDVRKLKGIPVLVGLLDHPKKEVHLGACGALKNISFGRDQDNKIAIKNCDGVPALVRLLRKARDMDLTEVITGTLWNLSSHDSIKMEIVDHALHALTDEVIIPHSGWEREPNEDCKPRHIEWESVLTNTAGCLRNVSSERSEARRKLRECDGLVDALIFIVQAEIGQKDSDSKLVENCVCLLRNLSYQVHREIPQAERYQEAAPNVANNTGPHAASCFGAKKGKDEWFSRGKKPIEDPANDTVDFPKRTSPARGYELLFQPEVVRIYISLLKESKTPAILEASAGAIQNLCAGRWTYGRYIRSALRQEKALSAIADLLTNEHERVVKAASGALRNLAVDARNKELIGKHAIPNLVKNLPGGQQNSSWNFSEDTVISILNTINEVIAENLEAAKKLRETQGIEKLVLINKSGNRSEKEVRAAALVLQTIWGYKELRKPLEKEGWKKSDFQVNLNNASRSQSSHSYDDSTLPLIDRNQKSDKKPDREEIQMSNMGSNTKSLDNNYSTPNERGDHNRTLDRSGDLGDMEPLKGTTPLMQDEGQESLEEELDVLVLDDEGGQVSYPSMQKI [CTNND1]
HeLa Kyoto [1]
  solubility in G1/S (log2): 0.228
HeLa Kyoto [2]; cell cycle stage: G1/S
  melting temperature: 48.1 °C
HeLa Kyoto [2]; cell cycle stage: mitosis
  melting temperature: 48 °C
HeLa Kyoto [3]
  solubility change mitosis (log2): -0.0563
HeLa Kyoto [4]; [5]
  thermal stability score: -0.443
HeLa Kyoto [4]; cell cycle stage: mitosis
  thermal stability score: 1.3

## MENLKHIITLGQVIHKRCEEMKYCKKQCRRLGHRVLGLIKPLEMLQDQGKRSVPSEKLTTAMNRFKAALEEANGEIEKFSNRSNICRFLTASQDKILFKDVNRKLSDVWKELSLLLQVEQRMPVSPISQGASWAQEDQQDADEDRRAFQMLRRDNEKIEASLRRLEINMKEIKETLRQYLPPKCMQEIPQEQIKEIKKEQLSGSPWILLRENEVSTLYKGEYHRAPVAIKVFKKLQAGSIAIVRQTFNKEIKTMKKFESPNILRIFGICIDETVTPPQFSIVMEYCELGTLRELLDREKDLTLGKRMVLVLGAARGLYRLHHSEAPELHGKIRSSNFLVTQGYQVKLAGFELRKTQTSMSLGTTREKTDRVKSTAYLSPQELEDVFYQYDVKSEIYSFGIVLWEIATGDIPFQGCNSEKIRKLVAVKRQQEPLGEDCPSELREIIDECRAHDPSVRPSVDEILKKLSTFSK [MLKL]
HeLa Kyoto [1]
  solubility in G1/S (log2): 0.126
HeLa Kyoto [2]; cell cycle stage: G1/S
  melting temperature: 49.6 °C
HeLa Kyoto [2]; cell cycle stage: mitosis
  melting temperature: 50 °C
HeLa Kyoto [3]
  solubility change mitosis (log2): -0.0647
HeLa Kyoto [4]; [5]
  thermal stability score: -0.232
HeLa Kyoto [4]; cell cycle stage: mitosis
  thermal stability score: 0.87

## MEPATAPRPDMAPELTPEEEQATKQFLEEINKWTVQYNVSPLSWNVAVKFLMARKFDVLRAIELFHSYRETRRKEGIVKLKPHEEPLRSEILSGKFTILNVRDPTGASIALFTARLHHPHKSVQHVVLQALFYLLDRAVDSFETQRNGLVFIYDMCGSNYANFELDLGKKVLNLLKGAFPARLKKVLIVGAPIWFRVPYSIISLLLKDKVRERIQILKTSEVTQHLPRECLPENLGGYVKIDLATWNFQFLPQVNGHPDPFDEIILFSLPPALDWDSVHVPGPHAMTIQELVDYVNARQKQGIYEEYEDIRRENPVGTFHCSMSPGNLEKNRYGDVPCLDQTRVKLTKRSGHTQTDYINASFMDGYKQKNAYIGTQGPLENTYRDFWLMVWEQKVLVIVMTTRFEEGGRRKCGQYWPLEKDSRIRFGFLTVTNLGVENMNHYKKTTLEIHNTEERQKRQVTHFQFLSWPDYGVPSSAASLIDFLRVVRNQQSLAVSNMGARSKGQCPEPPIVVHCSAGIGRTGTFCSLDICLAQLEELGTLNVFQTVSRMRTQRAFSIQTPEQYYFCYKAILEFAEKEGMVSSGQNLLAVESQ [PTPN9]
HeLa Kyoto [1]
  solubility in G1/S (log2): -0.0379
HeLa Kyoto [2]; cell cycle stage: G1/S
  melting temperature: 51.1 °C
HeLa Kyoto [2]; cell cycle stage: mitosis
  melting temperature: 51.7 °C
HeLa Kyoto [3]
  solubility change mitosis (log2): -0.094
HeLa Kyoto [4]; [5]
  thermal stability score: 1.02
HeLa Kyoto [4]; cell cycle stage: mitosis
  thermal stability score: -0.717

## MDLENKVKKMGLGHEQGFGAPCLKCKEKCEGFELHFWRKICRNCKCGQEEHDVLLSNEEDRKVGKLFEDTKYTTLIAKLKSDGIPMYKRNVMILTNPVAAKKNVSINTVTYEWAPPVQNQALARQYMQMLPKEKQPVAGSEGAQYRKKQLAKQLPAHDQDPSKCHELSPREVKEMEQFVKKYKSEALGVGDVKLPCEMDAQGPKQMNIPGGDRSTPAAVGAMEDKSAEHKRTQYSCYCCKLSMKEGDPAIYAERAGYDKLWHPACFVCSTCHELLVDMIYFWKNEKLYCGRHYCDSEKPRCAGCDELIFSNEYTQAENQNWHLKHFCCFDCDSILAGEIYVMVNDKPVCKPCYVKNHAVVCQGCHNAIDPEVQRVTYNNFSWHASTECFLCSCCSKCLIGQKFMPVEGMVFCSVECKKRMS [TES]
HeLa Kyoto [1]
  solubility in G1/S (log2): 0.0767
HeLa Kyoto [2]; cell cycle stage: G1/S
  melting temperature: 52 °C
HeLa Kyoto [2]; cell cycle stage: mitosis
  melting temperature: 52.3 °C
HeLa Kyoto [3]
  solubility change mitosis (log2): -0.111
HeLa Kyoto [4]; [5]
  thermal stability score: -0.92
HeLa Kyoto [4]; cell cycle stage: mitosis
  thermal stability score: -1.54
